In US7588931B2, “High arachidonic acid producing strains of Yarrowia lipolytica” (E. I. du Pont de Nemours and Company, priority 2004, dated 2009):

Legend:
Format in all cases: cell-based, Yarrowia lipolytica
GUS mRNA = assay: Comparative analysis of promoters by quantitative (Real Time) PCR of GUS mRNA; details: for transcription activity relative to the TEF promoter: after 24 hrs in HGM, ATCC #76982 strains
Method: The transcriptional activities of the TEF, GPD, GPDIN, FBA and FBAIN promoters were determined in Y. lipolytica containing the pY5-30, PYZGDG, pDMW222, pDMW212 and pDMW214 constructs by quantitative PCR analyses. This required isolation of RNA and real time RT-PCR.
More specifically, Y. lipolytica ATCC #76982 strains containing pY5-30, PYZGDG, pDMW222, pDMW212 and pDMW214 were grown from single colonies in 6 mL of MM in 25 mL Erlenmeyer flasks for 16 hrs at 30° C. Each of the 6 mL starter cultures was then added to individual 500 mL flasks containing 140 mL HGM and incubated at 30° C. for 4 days. In each interval of 24 hrs, 1 mL of each culture was removed from each flask to measure the optical density, 27 mL was removed and used for a fluorometric GUS assay (as described above), and two aliquots of 1.5 mL were removed for RNA isolation. The culture for RNA isolation was centrifuged to produce a cell pellet.
The RNA was isolated from Yarrowia strains according to the modified Qiagen RNeasy mini protocol (Qiagen, San Diego, Calif.). Briefly, at each time point for each sample, 340 μL of Qiagen's buffer RLT was used to resuspend each of the two cell pellets. The buffer RLT/cell suspension mixture from each of the two tubes was combined in a bead beating tube (Bio101, San Diego, Calif.). About 500 μL of […] glass beads was added to the tube and the cells were disrupted by bead beating 2 min at setting 5 (BioPulverizer, Bio101 Company, San Diego, Calif.). The disrupted cells were then pelleted by centrifugation at 14,000 rpm for 1 min and 350 μl of the supernatent was transferred to a new microcentrifuge tube. Ethanol (350 μL of 70%) was added to each homogenized lysate. After gentle mixing, the entire sample was added to a RNeasy mini column in a 2 mL collection tube. The sample was centrifuged for 15 sec at 10,000 rpm. Buffer RW1 (350 μL) was added to the RNeasy mini column and the column was centrifuged for 15 sec at 10,000 rpm to wash the cells. The eluate was discarded. Qiagen's DNasel stock solution (10 μL) was added to 70 μl of Buffer RDD and gently mixed. This entire DNase solution was added to the RNeasy mini column and incubated at room temperature for 15 min. After the incubation step, 350 μL of Buffer RW1 was added to the mini column and the column was centrifuged for 15 sec at 10,000 rpm. The column was washed twice with 700 μL […]. RNase-free water (50 μL) was added to the column. The column was centrifuged for 1 min at 10,000 rpm to elute the RNA.
A two-step RT-PCR protocol was used, wherein total Yarrowia RNA was first converted to cDNA and then cDNA was analyzed using Real Time PCR. The conversion to cDNA was performed using Applied Biosystems' High Capacity cDNA Archive Kit (PN#4322171; Foster City, Calif.) and Molecular Biology Grade water from MediaTech, Inc. (PN# 46-000-Con; Holly Hill, Fla.). Total RNA from Yarrowia (100 ng) was converted to cDNA by combining it with 10 μl of RT buffer, 4 μl of 25×dNTPs, 10 μl 10× Random Hexamer primers, 5 μl Multiscribe Reverse Transcriptase and 0.005 μl RNase Inhibitor, and brought to a total reaction volume of 100 μl with water. The reactions were incubated in a thermocycler for 10 min at 25° C. followed by 2 hrs at 37° C. The cDNA was stored at −20° C. prior to Real Time analysis.
Real Time analysis was performed using the SYBR Green PCR Master Mix from Applied Biosystems (PN# 4309155). The Reverse Transcription reaction (2 μl) was added to 10 μl of 2×SYBR PCR Mix, 0.2 μl of 100 μM Forward and Reverse primers for either URA (i.e., primers YL-URA-16F and YL-URA-78R [SEQ ID NOs:183 and 184]) or GUS (i.e., primers GUS-767F and GUS-891R [SEQ ID NO:185 and 186]) and 7.2 μl water. The reactions were thermocycled for 10 min at 95° C. followed by 40 cycles of 95° C. for 5 sec and 60° C. for 1 min in an ABI 7900 Sequence Detection System instrument. Real time fluorescence data was collected during the 60° C. extension during each cycle. […]

[1] = tested on: β-glucuronidase (GUS) reporter; assay: Relative promoter activity rank from comparative GUS reporter studies (histochemical, fluorometric and/or Real Time PCR); details: relative to other promoters
Method: The activity of GPM is about the same as TEF, while the activity of GPD, FBA, FBAIN, FBAINm, GPDIN, GPAT, YAT1 and EXP1 are all greater than TEF (activity is quantified in a relative manner in the column titled “Activity Rank”, wherein a ‘1’ corresponds to the promoter with lowest activity, while a ‘7’ corresponds to the promoter with highest activity). […] GUS activity in each expressed construct was measured by histochemical and/or fluorometric assays (Jefferson, R. A. Plant Mol. Biol. Reporter 5:387-405 (1987)) and/or by use of Real Time PCR.

[2] = tested on: β-glucuronidase (GUS) reporter; assay: Comparative analysis of promoters by histochemical analysis of GUS expression; details: ATCC #76982 strains, MM, FIG. 5B
Method: Comparative studies investigating the promoter activities of the TEF, GPD, GPDIN, GPM, GPAT, FBA, FBAIN and YAT1 promoters were performed, by synthesizing constructs comprising each promoter and the E. coli gene encoding β-glucuronidase (GUS) as a reporter gene (Jefferson, R. A. Nature. 14(342):837-838 (1989)). Then, GUS activity was measured by histochemical and fluorometric assays (Jefferson, R. A. Plant Mol. Biol. Reporter 5:387-405 (1987)) and/or by using Real Time PCR for mRNA quantitation.
Yarrowia lipolytica ATCC #76982 strains containing plasmids pY5-30, pYZGDG, pYZGMG, pDMW212 and pDMW214 were grown from single colonies in 3 mL MM at 30° C. to an OD600˜1.0. Then, 100 μl of cells were collected by centrifugation, resuspended in 100 μl of histochemical staining buffer, and incubated at 30° C. Staining buffer was prepared by dissolving 5 mg of 5-bromo-4-chloro-3-indolyl glucuronide (X-Gluc) in 50 μl dimethyl formamide, followed by the addition of 5 mL 50 mM NaPO4, pH 7.0.
In a separate experiment, Y. lipolytica Y2034 strains containing plasmids pY5-30, pYGPAT-GUS, pYAT-GUS and pDMW214 were grown from single colonies in 5 mL SD media at 30° C. for 24 hrs to an OD600˜8.0. Then, 1 mL of cells were collected by centrifugation. The remaining cultures were centrifuged and washed 2× with HGM, resuspended in 5 mL each of HGM and allowed to grow at 30° C. further. After 24 and 120 hrs, ˜0.25 mL of each culture were centrifuged to collect the cells. Cell samples were resuspended individually in 100 μl of histochemical staining buffer (supra). Zymolase 20T (5 μl of 1 mg/mL; ICN Biomedicals, Costa Mesa, Calif.) was added to each, and the mixture incubated at 30° C. […]

Molecule | transcription activity relative to the TEF promoter (GUS mRNA) | transcriptional activity relative to the TEF promoter (GUS mRNA; final day of the 4 day experiment in HGM) [times] | Activity “Rank” [1] | promoter activity by histochemical staining [2]
GPDIN: glyceraldehyde-3-phosphate dehydrogenase + intron promoter, SEQ ID NO:159 (nucleic acid, listed as Yarrowia lipolytica, misc_feature: Promoter GPDIN) DNA: AAACACGCAGTAGGATGTCCTGCACGGGTCTTTTTGTGGGGTGTGGAGAAAGGGGTGCTTGGAGATGGAAGCCGGTAGAACCGGGCTGCTTGTGCTTGGAGATGGAAGCCGGTAGAACCGGGCTGCTTGGGGGGATTTGGGGCCGCTGGGCTCCAAAGAGGGGTAGGCATTTCGTTGGGGTTACGTAATTGCGGCATTTGGGTCCTGCGCGCATGTCCCATTGGTCAGAATTAGTCCGGATAGGAGACTTATCAGCCAATCACAGCGCCGGATCCACCTGTAGGTTGGGTTGGGTGGGAGCACCCCTCCACAGAGTAGAGTCAAACAGCAGCAGCAACATGATAGTTGGGGGTGTGCGTGTTAAAGGAAAAAAAAGAAGCTTGGGTTATATTCCCGCTCTATTTAGAGGTTGCGGGATAGACGCCGACGGAGGGCAATGGCGCTATGGAACCTTGCGGATATCCATACGCCGCGGCGGACTGCGTCCGAACCAGCTCCAGCAGCGTTTTTTCCGGGCCATTGAGCCGACTGCGACCCCGCCAACGTGTCTTGGCCCACGCACTCATGTCATGTTGGTGTTGGGAGGCCACTTTTTAAGTAGCACAAGGCACCTAGCTCGCAGCAAGGTGTCCGAACCAAAGAAGCGGCTGCAGTGGTGCAAACGGGGCGGAAACGGCGGGAAAAAGCCACGGGGGCACGAATTGAGGCACGCCCTCGAATTTGAGACGAGTCACGGCCCCATTCGCCCGCGCAATGGCTCGCCAACGCCCGGTCTTTTGCACCACATCAGGTTACCCCAAGCCAAACCTTTGTGTTAAAAAGCTTAACATATTATACCGAACGTAGGTTTGGGCGGGCTTGCTCCGTCTGTCCAAGGCAACATTTATATAAGGGTCTGCATCGCCGGCTCAATTGAATCTTTTTTCTTCTTCTCTTCTCTATATTCATTCTTGAATTAAACACACATCAACATGGCCATCAAAGTCGGTATTAACGGATTCGGGCGAATCGGACGAATTGTGAGTACCATAGAAGGTGATGGAAACATGACCCAACAGAAACAGATGACAAGTGTCATCGACCCACCAGAGCCCAATTGAGCTCATACTAACAGTCGACAACCTGTCGAACCAATTGATGACTCCCCGACAATGTACTAACACAGGTCCTGCCC | ~4.4 times | ~2.6 | 3 | –
GPD: Y. lipolytica glyceraldehyde-3-phosphate dehydrogenase promoter, SEQ ID NO:158 (nucleic acid, listed as Yarrowia lipolytica, misc_feature: Promoter GPD) DNA: GACGCAGTAGGATGTCCTGCACGGGTCTTTTTGTGGGGTGTGGAGAAAGGGGTGCTTGGAGATGGAAGCCGGTAGAACCGGGCTGCTTGTGCTTGGAGATGGAAGCCGGTAGAACCGGGCTGCTTGGGGGGATTTGGGGCCGCTGGGCTCCAAAGAGGGGTAGGCATTTCGTTGGGGTTACGTAATTGCGGCATTTGGGTCCTGCGCGCATGTCCCATTGGTCAGAATTAGTCCGGATAGGAGACTTATCAGCCAATCACAGCGCCGGATCCACCTGTAGGTTGGGTTGGGTGGGAGCACCCCTCCACAGAGTAGAGTCAAACAGCAGCAGCAACATGATAGTTGGGGGTGTGCGTGTTAAAGGAAAAAAAAGAAGCTTGGGTTATATTCCCGCTCTATTTAGAGGTTGCGGGATAGACGCCGACGGAGGGCAATGGCGCCATGGAACCTTGCGGATATCGATACGCCGCGGCGGACTGCGTCCGAACCAGCTCCAGCAGCGTTTTTTCCGGGCCATTGAGCCGACTGCGACCCCGCCAACGTGTCTTGGCCCACGCACTCATGTCATGTTGGTGTTGGGAGGCCACTTTTTAAGTAGCACAAGGCACCTAGCTCGCAGCAAGGTGTCCGAACCAAAGAAGCGGCTGCAGTGGTGCAAACGGGGCGGAAACGGCGGGAAAAAGCCACGGGGGCACGAATTGAGGCACGCCCTCGAATTTGAGACGAGTCACGGCCCCATTCGCCCGCGCAATGGCTCGCCAACGCCCGGTCTTTTGCACCACATCAGGTTACCCCAAGCCAAACCTTTGTGTTAAAAAGCTTAACATATTATACCGAACGTAGGTTTGGGCGGGCTTGCTCCGTCTGTCCAAGGCAACATTTATATAAGGGTCTGCATCGCCGGCTCAATTGAATCTTTTTTCTTCTTCTCTTCTCTATATTCATTCTTGAATTAAACACACATCAACATG | about 2 times | – | 2 | active
